Results on three molecules are retold here after publication PMC8704557 (International Journal of Molecular Sciences, 2021).

Series [1] addresses STK16540 protein (product of stk_16540), alpha subunit of the Dye-LDH complex (Sulfurisphaera tokodaii). Description: native gel or EMSA; native gradient PAGE (Novex NativePAGE Bis-Tris gel system) of the purified enzyme; single protein of approximately 253 kDa; subunit masses from SDS-PAGE. In general terms: A gel shift assay detects complexes by their altered migration in electrophoresis.

Series [2] concerns the target T1, Dye-LDH complex (recombinant dye-linked L-lactate dehydrogenase, STK16540 (α) / STK16550 (β), α3β3) (Sulfurisphaera tokodaii, UniProt Q970D7).
T1 construct: gene ST1655; gene cluster stk_16540-16570 expressed in Sulfolobus acidocaldarius SK1; N-terminal His-tag on STK16540 kept; purified α3β3 heterohexamer, about 253 kDa (subunits 30 and 40 kDa by SDS-PAGE; STK16550 43 kDa); stk_16560 and stk_16570 products not in the purified complex; with Dye-linked L-lactate dehydrogenase, alpha subunit (hypothetical protein with Fe-S cluster motif)
T1 sequence (Q970D7 1-383): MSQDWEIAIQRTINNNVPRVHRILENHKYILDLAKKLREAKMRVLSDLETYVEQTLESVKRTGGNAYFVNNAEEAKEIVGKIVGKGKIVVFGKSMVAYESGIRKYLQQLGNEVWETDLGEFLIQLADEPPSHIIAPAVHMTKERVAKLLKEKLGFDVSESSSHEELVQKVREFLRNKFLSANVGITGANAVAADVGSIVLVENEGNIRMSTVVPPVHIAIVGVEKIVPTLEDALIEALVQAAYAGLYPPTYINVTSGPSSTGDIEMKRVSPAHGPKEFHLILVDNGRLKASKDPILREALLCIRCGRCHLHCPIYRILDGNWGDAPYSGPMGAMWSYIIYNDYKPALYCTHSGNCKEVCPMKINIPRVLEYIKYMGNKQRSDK
T1 sequence (Q970D8 1-287 partner): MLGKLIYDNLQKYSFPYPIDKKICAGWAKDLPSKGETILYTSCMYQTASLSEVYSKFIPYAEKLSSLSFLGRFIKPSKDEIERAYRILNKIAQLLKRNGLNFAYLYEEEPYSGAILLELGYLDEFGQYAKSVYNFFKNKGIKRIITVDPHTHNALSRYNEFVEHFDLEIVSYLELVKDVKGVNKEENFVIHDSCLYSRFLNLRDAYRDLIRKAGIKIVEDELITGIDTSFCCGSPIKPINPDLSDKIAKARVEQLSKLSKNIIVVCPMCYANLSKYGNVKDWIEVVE
Description: flavin extracted from purified enzyme, identified by HPLC. Particulars: prosthetic group co-purified with the complex. The format is binding.

Substrate in series [3]: C[C@H](O)C(=O)O
Description: purified protein. Conditions: electron donor, standard assay 0.2 mM DCIP, 200 mM PIPES-NaOH pH 6.5, 60 °C, free enzyme.

Substrate in series [4]: O=C1C(Cl)=CC(=Nc2ccc(O)cc2)C=C1Cl
The series can be described thus: purified protein. Particulars: electron acceptor, standard assay 40 mM L-lactate, 200 mM PIPES-NaOH pH 6.5, 60 °C, free enzyme. The series is classed as biochemical, Sulfurisphaera tokodaii.

“Dye-LDH homolog (product of stk_16550), beta subunit of the Dye-LDH complex (enzyme)” came in with a stoichiometry N (β per α (3:3)) in series [1] of 1.
For the molecule `Cc1cc2nc3c(=O)[nH]c(=O)nc-3n(C[C@H](O)[C@H](O)[C@H](O)COP(=O)(O)O)c2cc1C` [FMN], the “flavin extracted from purified enzyme, identified by HPLC” value in series [2] was “the flavin compound in the enzyme extract was identified as FMN”.

B1: Dye-LDH complex (recombinant dye-linked L-lactate dehydrogenase, STK16540 (α) / STK16550 (β), α3β3) (Sulfurisphaera tokodaii str. 7) (protein)
chain: T1 sequence (Q970D7 1-383)
notes: gene cluster stk_16540-16570 expressed in Sulfolobus acidocaldarius SK1; N-terminal His-tag on STK16540 kept; purified α3β3 heterohexamer, about 253 kDa (subunits 30 and 40 kDa by SDS-PAGE; STK16550 43 kDa); stk_16560 and stk_16570 products not in the purified complex; with Dye-linked L-lactate dehydrogenase, alpha subunit (hypothetical protein with Fe-S cluster motif)
What is called Km is the substrate concentration at which the rate is half of its maximum. In the case of B1, the Km stood at 199 µM in the series “purified protein [3]” and 200 µM in the series “purified protein [4]”.
